According to PMC3758421:

Key:
Assay in all cases: Spinach sensor fluorescence
streptavidin = streptavidin (UniProt P22629 25-183)
thrombin = thrombin (human, UniProt P00734;P00734 315-363;364-622)
[1] = target: MS2 phage coat protein (MCP) (MS2 phage, UniProt P03612 2-130)
Sequence of MS2 phage coat protein (MCP) (P03612 2-130): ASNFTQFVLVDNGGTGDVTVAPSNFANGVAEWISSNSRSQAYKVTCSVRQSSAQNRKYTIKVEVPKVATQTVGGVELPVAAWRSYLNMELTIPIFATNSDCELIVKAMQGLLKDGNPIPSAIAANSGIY

Sequence of streptavidin (P22629 25-183): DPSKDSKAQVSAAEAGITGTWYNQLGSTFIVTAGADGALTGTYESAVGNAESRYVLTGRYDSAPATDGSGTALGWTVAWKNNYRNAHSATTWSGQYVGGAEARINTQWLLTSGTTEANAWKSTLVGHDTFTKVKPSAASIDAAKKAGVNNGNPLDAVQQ

B1: streptavidin sensor (Spinach fusion) (structured_RNA)
RNA: GACGCGACUGAAUGAAAUGGUGAAGGACGGGUCCACGACCGACCAGAAUCAUGCAAGUGCGUAAGAUAGUCGCGGGCCGGGGUUGUUGAGUAGAGUGUGAGCUCCGUAACUAGUCGCGUC
- binding signal (streptavidin): 10.3 fold fluorescence increase

B2: thrombin sensor (Spinach fusion) (structured_RNA)
RNA: GACGCGACUGAAUGAAAUGGUGAAGGACGGGUCCAGGAACAAAGCUGAAGUACUUACCUUGUUGAGUAGAGUGUGAGCUCCGUAACUAGUCGCGUC
- binding signal (thrombin): 6.9 fold fluorescence increase

B3: MCP sensor (Spinach fusion with MS2E) (structured_RNA)
RNA: GACGCGACUGAAUGAAAUGGUGAAGGACGGGUCCAAUGAGGAUCACCCAUUUGUUGAGUAGAGUGUGAGCUCCGUAACUAGUCGCGUC
- binding signal [1]: 41.7 fold fluorescence increase
